For one molecule, Kd results are on record in article PMC11661108 (bioRxiv, 2024).

Values joined by “and” are separate entries in the source; they are usually repeats but may differ in a detail not shown here. Identical values can stand only once.

Common to all, as to assay: BLI
Background: In BLI a coated tip is dipped into the sample, and binding shifts an interference pattern.

Test [1] deals with RBD of SARS-CoV-2 BA.1 (SARS-CoV-2 Omicron BA.1, strain, biotin (Avi tag)).
Test [2] concerns the target RBD of SARS-CoV-2 EG.5.1 (SARS-CoV-2 Omicron EG.5.1, strain, biotin (Avi tag)).
In test [3] the target is RBD of SARS-CoV-2 HV.1 (SARS-CoV-2 Omicron HV.1, strain, biotin (Avi tag)).

B1: Fab-52 (Fab, V domains shown)
VH: EVQLVQSGGDLAPPGGSLRLSCEASGIIVSSNYMTWVRQAPGKGLEWVSLIFAGGSTFYADSVKGRFTVSRDNSKNTLYLQMSSLKPEDTAVYFCARDLREMGGLDFWGQGALVTVSS
VL: DIQMTQSPSSVSASIGDTVTITCRASQGIPSWVAWYQQKPGKAPKLLIYGASNLQRGVPSRFSGSGSGTDFTLTISSLQPEDLAVYYCHQSDSLPGIFGGGTKVEIK
Usually Kd stands for a measure of binding affinity in units of concentration. Lower therefore signals tighter binding. Take B1: the Kd in test [1] is 1.1 nM; in test [2], 10 nM and 7 nM; in test [3] it was 12.2 nM and 9.1 nM.
